Experimental data taken from US20200405868A1, “GEL-FORMING POLYPEPTIDES” (priority 2018, published 2020).
*1 amine or outer side, *2 acyl side, *3 side chain or, on linkers, in order; H or OH if unused. Where no end group is shown, it is not given here. The star is where a group is joined. FITC = O=C1OC2(c3ccc(O)cc3Oc3cc(O)ccc32)c2ccc(NC(=S)*)cc21; K(Pal) = CCCCCCCCCCCCCCCC(=O)NCCCC[C@H](N[*:1])C(=O)[*:2]

Test: Compound gel-forming ability in water (visual inspection, tube tapping assay, tilted tube assay);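 note: peptides mixed with de-ionized water at about 22-25 °C, judged after 20 min by eye plus tube tapping (10 taps, moves counted) and 90° tilt mobility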
Assay type: physicochemical
Conditions: for gel formation at 6% w/w: 6% w/w in water; for gel formation at 11% w/w: 11% w/w in water; for gel formation at 20% w/w: 20% w/w in water; for Physical property at 11% w/w: 11% w/w in aqueous solution, room temperature; for gel formation in aqueous solution, 6% / gel formation in aqueous solution, 11% / gel formation in aqueous solution, 20%: Table 3; for gel formation in aqueous solution, 6% / propensity to form gels, wild-type counterparts, 6%: 6% w/w; for gel formation in aqueous solution, 11% / propensity to form gels, wild-type counterparts, 11% / propensity to form gels, chimeric or mutated polypeptides, 11%: 11% w/w; for gel formation in aqueous solution, 20% / propensity to form gels, wild-type counterparts, 20% / propensity to form gels, chimeric or mutated polypeptides, 20%: 20% w/w; for gel formation at the selected concentration: selected concentration (i.e., at 30%, 20%, 11%, or 6% w/w)

Substance	gel formation at 11% w/w	Physical property at 11% w/w (Table 1)	gel formation in aqueous solution, 11%	gel formation in aqueous solution, 20%	propensity to form gels, wild-type counterparts, 11% (Table 5)	further results
(Glp)RPRLSHKGP(Nle)PF-NH2 (pyroGlu; Nle; C-terminal amide) [SEQ ID NO:18, reference compound]	does not form gel	AS/IS	AS/IS (AS/IS for aqueous solution or insoluble)	AS/IS (AS/IS for aqueous solution or insoluble)	AS/IS	gel formation at 6% w/w: does not form gel; gel formation at 20% w/w: does not form gel; gel formation in aqueous solution, 6%: AS/IS (AS/IS for aqueous solution or insoluble); propensity to form gels, wild-type counterparts, 6% (Table 5): AS/IS; propensity to form gels, wild-type counterparts, 20% (Table 5): AS/IS; gel formation at the selected concentration: only form aqueous solution or are insoluble
(Lauric acid)-SSPHSY-NH2 [SEQ ID NO:122]	–	–	–	–	–	Physical property at 11% w/w (Table 2): SS (SS for semisolid gel)
(Myristic acid)-SSPHSY-NH2 [SEQ ID NO:123]	–	–	–	–	–	Physical property at 11% w/w (Table 2): SS (SS for semisolid gel)
Ac-EEMQRR-NH2 [SEQ ID NO:47, reference compound]	–	AS/IS	AS/IS (AS/IS for aqueous solution or insoluble)	–	AS/IS	–
Ace-FKFEFKFE-NH2 [SEQ ID NO:141, reference compound]	–	–	–	–	–	Physical property at 11% w/w (Table 2): SS (SS for semisolid gel)
Ace-K(PAL)FGCRFGTCTVQKLAHQIYQFTDKDKDNVAPRSKISPQGY-NH2 [SEQ ID NO:1]	liquid gel	–	–	–	–	gel formation in aqueous solution, 6%: AS/IS (AS/IS for aqueous solution or insoluble); propensity to form gels, wild-type counterparts, 3% (Table 5, 3% w/w): AS/IS; propensity to form gels, wild-type counterparts, 6% (Table 5): AS/IS
Ace-KVQKLSAPVDPSSPHSY-NH2 [SEQ ID NO:115]	–	–	–	–	–	Physical property at 11% w/w (Table 2): AS/IS (AS/IS for aqueous solution or insoluble)
Ace-NFVPTNVGPFAF-NH2 (Ac-NFVPTNVGPFAF-NH2) [SEQ ID NO:134]	–	–	–	–	–	Physical property at 11% w/w (Table 2): AS/IS (AS/IS for aqueous solution or insoluble)
Ace-RADARADARADARADA-NH2 [SEQ ID NO:142, reference compound]	–	–	–	–	–	Physical property at 11% w/w (Table 2): SS (SS for semisolid gel)
Ace-TVQKLAHQIYQFTDKDKDNVAPRSKISPQGY-NH2 [SEQ ID NO:101]	–	–	–	–	–	Physical property at 11% w/w (Table 2): AS/IS (AS/IS for aqueous solution or insoluble)
CSNLSTCVLGKLSQELHKLQTYPRTNTGSGTP-NH2 [SEQ ID NO:28, reference compound]	does not form gel	AS/IS	–	AS/IS (AS/IS for aqueous solution or insoluble)	AS/IS	–
DRVYIHPF-NH2 [SEQ ID NO:16, reference compound]	–	AS/IS	–	–	–	–
EAYKAAEKAYAAKEAAKEAAKAKAEKKAAYAKAKAAKYEKKAKKAAAEYKKK [SEQ ID NO:42, reference compound]	does not form gel	AS/IS	AS/IS (AS/IS for aqueous solution or insoluble)	AS/IS (AS/IS for aqueous solution or insoluble)	AS/IS	gel formation at 20% w/w: does not form gel; propensity to form gels, wild-type counterparts, 20% (Table 5): AS/IS
FITC-K(Pal)SSPHSY-miniPEG-GRKKRRQRRRPQ ({FITC-K(Pal)-Ser-Ser-Pro-H2N-Ser-Tyr-miniPEG}-GRKKRRQRRRPQ) [SEQ ID NO:241]	liquid gel	–	–	–	–	–
FKFEFKFE-miniPEG-RPKPQQFFGLM-NH2 [SEQ ID NO:284]	–	–	AS/IS (AS/IS for aqueous solution or insoluble)	–	–	gel formation in aqueous solution, 6%: AS/IS (AS/IS for aqueous solution or insoluble)
FTLSLDVPTNIMNLLFNIAKAKNLRAQAAANAHLMAQI-NH2 [SEQ ID NO:10, reference compound]	semisolid gel	SS (SS for semisolid gel)	SS (SS for semisolid gel)	SS (SS for semisolid gel)	SS (An ability to form semisolid gel is represented by an SS)	gel formation at 3% w/w (3% w/w in water): liquid gel; gel formation at 6% w/w: semisolid gel; propensity to form gels, wild-type counterparts, 6% (Table 5): SS (An ability to form semisolid gel is represented by an SS)
GRKKRRQRRRPQ [SEQ ID NO:36, reference compound]	cannot form gel	AS/IS	AS/IS (AS/IS for aqueous solution or insoluble)	AS/IS (AS/IS for aqueous solution or insoluble)	AS/IS	gel formation at 20% w/w: cannot form gel; propensity to form gels, wild-type counterparts, 20% (Table 5): AS/IS; gel formation at the selected concentration: only form aqueous solution or are insoluble
HAEGTFTSDVSSYLEGQAAK(YSHPSS-Pal)EFIAWLVRGRG [SEQ ID NO:269]	–	–	SS (SS for semisolid gel)	SS (SS for semisolid gel)	–	propensity to form gels, chimeric or mutated polypeptides, 11% (Table 5): SS (An ability to form semisolid gel is represented by an SS); propensity to form gels, chimeric or mutated polypeptides, 20% (Table 5): SS (An ability to form semisolid gel is represented by an SS)
HAEGTFTSDVSSYLEGQAAKEFIAWLVKGR-NH2 [SEQ ID NO:14, reference compound]	liquid gel	–	–	–	–	gel formation in aqueous solution, 6%: AS/IS (AS/IS for aqueous solution or insoluble); propensity to form gels, wild-type counterparts, 6% (Table 5): AS/IS
HAEGTFTSDVSSYLEGQAAREFIAWLVK(YSHPSS-Pal)GRG [SEQ ID NO:270]	–	–	SS (SS for semisolid gel)	SS (SS for semisolid gel)	–	propensity to form gels, chimeric or mutated polypeptides, 11% (Table 5): SS (An ability to form semisolid gel is represented by an SS); propensity to form gels, chimeric or mutated polypeptides, 20% (Table 5): SS (An ability to form semisolid gel is represented by an SS)
HGDGSFSDEMNTILDNLAARDFINWLIQTKITD-OH [SEQ ID NO:12, reference compound]	liquid gel	–	–	–	–	gel formation in aqueous solution, 6%: AS/IS (AS/IS for aqueous solution or insoluble); propensity to form gels, wild-type counterparts, 6% (Table 5): AS/IS
HSDAVFTDNYTRLRKQ-Nle-AVKKYLNSILN-(Pal-K)-SY-NH2 [SEQ ID NO:266]	semisolid gel	–	SS (SS for semisolid gel)	–	–	propensity to form gels, chimeric or mutated polypeptides, 11% (Table 5): SS (An ability to form semisolid gel is represented by an SS)
HSDAVFTDNYTRLRKQMAVKKYLNSILN [SEQ ID NO:67, reference compound]	does not form gel	–	AS/IS (AS/IS for aqueous solution or insoluble)	AS/IS (AS/IS for aqueous solution or insoluble)	AS/IS	gel formation at 20% w/w: does not form gel; propensity to form gels, wild-type counterparts, 20% (Table 5): AS/IS
IEGPTLRQWLAARA [SEQ ID NO:9, reference compound]	–	SS (SS for semisolid gel)	–	–	–	–
IVLSLDVPIGLLQILLEQARARAAREQATTNARILARVGHC-NH2 [SEQ ID NO:31, reference compound]	does not form gel	AS/IS	AS/IS (AS/IS for aqueous solution or insoluble)	AS/IS (AS/IS for aqueous solution or insoluble)	AS/IS	gel formation at 20% w/w: does not form gel; propensity to form gels, wild-type counterparts, 20% (Table 5): AS/IS; gel formation at the selected concentration: only form aqueous solution or are insoluble
KRPPGFS-(Dβal)-Ile-NH2 [SEQ ID NO:65, reference compound]	does not form a gel	–	AS/IS (AS/IS for aqueous solution or insoluble)	–	AS/IS	gel formation at 6% w/w: does not form a gel; gel formation in aqueous solution, 6%: AS/IS (AS/IS for aqueous solution or insoluble); propensity to form gels, wild-type counterparts, 6% (Table 5): AS/IS
KTTKS-NH2 [SEQ ID NO:43, reference compound]	–	AS/IS	–	–	–	–
PFRSVQ-NH2 [SEQ ID NO:37, reference compound]	does not form gel	AS/IS	AS/IS (AS/IS for aqueous solution or insoluble)	–	AS/IS	–
PGTCEICAYAACTGC [SEQ ID NO:40, reference compound]	–	AS/IS	–	–	–	–
